Reference: the RNAGym collection of RNA variant scans (doi:10.7554/elife.80360)

B1: Hairpin Ribozyme (parent)
chain: GUCCUCUUUCACGUGCGCGUGAAAGAGAGAAGUGAACCAGAGAAACACACGUUGUGGUAUAUUACCUGGUA

Variants of: B1
Test: self-cleavage, relative activity (ratio to wild type); higher = more cleavage; co-transcriptional

Q: Which self-cleavage does the source give for GUCCUCUUUCACGUGCGCGUGCAAGAGAGAAGUGAACCAGAGAAACACACGUUGUGGUAUAUUACAUGGUA here?
A: 0.216

Q: For GUCCUCUUUCACGUGCGCGUGCAAGAGAGAAGUGAACCAGAGAAACACAUGUUGUGGUAUAUUACCUGGUA, which self-cleavage is on record?
A: 0.405

Q: With GUCCUCUUUCACGUGCGCGUGCCAGAGAGAAGUGAACCAGAGAAACACACGUUGUGGUAUAUUACCUGGUA as the variant, how does the self-cleavage read?
A: 0.947

Q: With GUCCUCUUUCACGUGCGCGUGCGAGAGAGAAGUGAACCAGAGAAACACACGUUGUGGUAUAUUACCUGGUA as the variant, how does the self-cleavage read?
A: 0.779

Q: For GUCCUCUUUCACGUGCGCGUGCUAGAGAGAAGUGAACCAGAGAAACACACGUUGUGGUAUAUUACCUGGUA, which self-cleavage is on record?
A: 0.932

Q: For GUCCUCUUUCACGUGCGCGUGCAAGAGAGAAGUGAACCAGAGAAACACACGUUGUGGUAUAUUACCCGGUA, which self-cleavage is on record?
A: 0.196

Q: For GUCCUCUUUCACGUGCGCGUGCAAGAGAGAAGUGAACCAGAGAAACACACGUUGUGGUAUAUUACCAGGUA, which self-cleavage is on record?
A: 0.195

Q: Which self-cleavage does the source give for GUCCUCUUUCACGUGCGCGUGCAAGAGAGAAGUGAACCAGAGAAACACACGUUAUGGUAUAUUACCUGGUA here?
A: 0.587

Q: Which self-cleavage does the source give for GUCCUCUUUCACGUGCGCGUGCAAGAGAGAAGUGAACCAGAGAAACACACGUUUUGGUAUAUUACCUGGUA here?
A: 0.514

Q: Which self-cleavage does the source give for GUCCUCUUUCACGUGCGCGUGGAAGCGAGAAGUGAACCAGAGAAACACACGUUGUGGUAUAUUACCUGGUA here?
A: 0.649

Q: Which self-cleavage does the source give for GUCCUCUUUCACGUGCGCGUGCAAGAGAGAAGUGAACCAGAGAAACACACUUUGUGGUAUAUUACCUGGUA here?
A: 0.919

Q: For GUCCUCUUUCACGUGCGCGUGCAAGAGAGAAGUGAACCAGAGAAACACACGUGGUGGUAUAUUACCUGGUA, which self-cleavage is on record?
A: 0.822

Q: For GUCCUCUUUCACGUGCGCGUGCAAGAGAGAAGUGAACCAGAGAAACACACGUAGUGGUAUAUUACCUGGUA, which self-cleavage is on record?
A: 0.81

Q: With GUCCUCUUUCACGUGCGCGUGCAAGAGAGAAGUGAACCAGAGAAACACACGUCGUGGUAUAUUACCUGGUA as the variant, how does the self-cleavage read?
A: 1.03

Q: Which self-cleavage does the source give for GUCCUCUUUCACGUGCGCGUGCAAGAGAGAAGUGAACCAGAGAAACACACGGUGUGGUAUAUUACCUGGUA here?
A: 0.726

Q: For GUCCUCUUUCACGUGCGCGUGCAAGAGAGAAGUGAACCAGAGAAACACACGCUGUGGUAUAUUACCUGGUA, which self-cleavage is on record?
A: 1.09

Q: Which self-cleavage does the source give for GUCCUCUUUCACGUGCGCGUGCAAGAGAGCAGUGAACCAGAGAAACACACGUUGUGGUAUAUUACCUGGUA here?
A: 0.16

Q: With GUCCUCUUUCACGUGCGCGUGCAAGAGACAAGUGAACCAGAGAAACACACGUUGUGGUAUAUUACCUGGUA as the variant, how does the self-cleavage read?
A: 0.0774

Q: For GUCCUCUUUCACGUGCGCGUGCAAGAGAGAAGUGAACCAGAGCAACACACGUUGUGGUAUAUUACCUGGUA, which self-cleavage is on record?
A: 0.061

Q: Which self-cleavage does the source give for GUCCUCUUUCACGUGCGCGUGCAAGAGAGAAGUGAACCAGAGAAACACUCGUUGUGGUAUAUUACCUGGUA here?
A: 0.204

Q: With GUCCUCUUUCACGUGCGCGUGGCAGAGAGAAGUGAACCAGAGAAACACACGUUGUGGUAUAUUACCUGGUA as the variant, how does the self-cleavage read?
A: 0.915

Q: Which self-cleavage does the source give for GUCCUCUUUCACGUGCGCGUGGUAGAGAGAAGUGAACCAGAGAAACACACGUUGUGGUAUAUUACCUGGUA here?
A: 0.59

Q: With GUCCUCUUUCACGUGCGCGUUAAAGAGAGAAGUGAACCAGAGAAACACACGUUGUGGCAUAUUACCUGGUA as the variant, how does the self-cleavage read?
A: 0.84

Q: For GUCCUCUUUCACGUGCGCGUUAAAGAGAGAAGUGAACCAGAGAAACACACGUUGUGGGAUAUUACCUGGUA, which self-cleavage is on record?
A: 0.585

Q: With GUCCUCUUUCACGUGCGCGUGCAAGAGAGAAGUGAACCAGAGAAACACACGUUGUGGUAUAUUGCCUGGUA as the variant, how does the self-cleavage read?
A: 0.467

Q: Which self-cleavage does the source give for GUCCUCUUUCACGUGCGCGUGGAAGAGAGCAGUGAACCAGAGAAACACACGUUGUGGUAUAUUACCUGGUA here?
A: 0.182

Q: Which self-cleavage does the source give for GUCCUCUUUCACGUGCGCGUGGAAGAGAGUAGUGAACCAGAGAAACACACGUUGUGGUAUAUUACCUGGUA here?
A: 0.0767

Q: With GUCCUCUUUCACGUGCGCGUGGAAGAGAGGAGUGAACCAGAGAAACACACGUUGUGGUAUAUUACCUGGUA as the variant, how does the self-cleavage read?
A: 0.0887

Q: With GUCCUCUUUCACGUGCGCGUGCAAGAGAGAAGUGAACCAGAGAAACACACGUUGUGGUAUAUUACCUGGAA as the variant, how does the self-cleavage read?
A: 0.862

Q: Which self-cleavage does the source give for GUCCUCUUUCACGUGCGCGUGCAAGAGAGAAGUGAACCAGAGAAACACACGUUGUGGUAUAUUACCUGGCA here?
A: 0.892

Q: Which self-cleavage does the source give for GUCCUCUUUCACGUGCGCGUGCAAGAGAGAAGUGAACCAGAGAAACACACGUUGUGGUAUAUUACCUAGUA here?
A: 0.165

Q: For GUCCUCUUUCACGUGCGCGUGCAAGAGAGAAGUGAACCAGAGAAACACACGUUGUGGUAUAUUACCUUGUA, which self-cleavage is on record?
A: 0.262

Q: For GUCCUCUUUCACGUGCGCGUUAAAGAGAGAAGUGAACCAGAGAAACACACGUUGUGGUAUAUUACCAGGUA, which self-cleavage is on record?
A: 0.088

Q: With GUCCUCUUUCACGUGCGCGUGCAAGAGAGAAGUGAACCACAGAAACACACGUUGUGGUAUAUUACCUGGUA as the variant, how does the self-cleavage read?
A: 0.123

Q: With GUCCUCUUUCACGUGCGCGUGCAAGAGAGAAGUGAACCAGAGAAACAGACGUUGUGGUAUAUUACCUGGUA as the variant, how does the self-cleavage read?
A: 0.138

Q: With GUCCUCUUUCACGUGCGCGUGCAAGAGAGAAGUGAACCAGAGAAACAUACGUUGUGGUAUAUUACCUGGUA as the variant, how does the self-cleavage read?
A: 0.235

Q: Which self-cleavage does the source give for GUCCUCUUUCACGUGCGCGUGCAAGAGAGAAGUGAACCAGAGAAACAAACGUUGUGGUAUAUUACCUGGUA here?
A: 0.291

Q: Which self-cleavage does the source give for GUCCUCUUUCACGUGCGCGUGCAAGAGAGAAGUGAACCAGAGAAACACACGUUGUGGUAUAUGACCUGGUA here?
A: 0.109
